Data reported in publication PMC3733929, “Analysis of Mutations in Neurospora crassa ERMES Components Reveals Specific Functions Related to β-Barrel Protein Assembly and Maintenance of Mitochondrial Morphology” (PLoS ONE, 2013).

Biological target: the molecule itself
Test: non-reducing SDS-PAGE and Western blot; isolated mitochondria dissolved in cracking buffer (0.06 M Tris-HCl pH 6.8, 2.5% SDS, 5% sucrose) without β-mercaptoethanol; anti-HA blot; disulphide-bonded form at about 100 kDa

B1: Mmm1-HA (N. crassa Mmm1 with a C-terminal triple hemaglutinin epitope tag) (natural protein, Neurospora crassa, UniProt Q9P353 1-415, looked up)
chain: MADICPSRSEPTLSFTQGLILGQLSVVLLLAAFIKFFIFGDPPSPEVVASIRATDRRSRTLAHKKSILSLRETNALQLVQNPALNKKHVLRPGPPILTIGSILSKTYYKVDSHQPESLDWFNVLIAQTIAQFRSDAQHDDAILSSLSKALNGTARPDFLDEIKVTELSLGEDFPIFSNCRIIPVDEDGLSFGTGKAFDANMATREGARLQARMDVDLSDMITLAVETKLLLNYPKRLSAVLPVALAVSVVRFSGTLSISFIPSNPSNNEPAKMIFTFLDDYRLDFSIRSLLGSRSRLQDVPKIAQLVESRLHRWFDERCVEPRFQEIALPNMWPRKKNTRGGDETISDVERSMSKAKGVDIAKDVREEARKEIEAEAHGGADRVPDSLRYRHRPRADEEFPGAGSMPGSMPGSMP
notes: Mmm1, Neurospora crassa; also called HA-tagged Mmm1; Mmm1-HA3; source: N. crassa Δmmm1 transformed with pMmm1-HA (endogenous mmm1 promoter; strains Mmm1-HA3, Mmm1-HA5, Mmm1-HA8), in isolated mitochondria or post mitochondrial pellet; not shown: 3xHA, C-terminal, kept
stoichiometry N: 2
